# Experimental data as given in US20160263155A1, “T CELL RECEPTORS DIRECTED AGAINST THE PREFERENTIALLY EXPRESSED ANTIGEN OF MELANOMA AND USES THEREOF” (LEIDEN UNIVERSITY MEDICAL CENTER, priority 2015, published 2016).
# B1: N405Q-S144A (protein)
# chain: GFGDVGALEALRGNADLAYILSMEPCGHCLIINNVNFCRESGLRTRTGSNIDCEKLRRRFSSLHFMVEVKGDLTAKKMVLALLELAQQDHGALDCCVVVILSHGCQASHLQFPGAVYGTDGCPVSVEKIVNIFNGTSCPSLGGKPKLFFIQACGGEQKDHGFEVASTSPEDESPGSNPEPDATPFQEGLRTFDQLDAISSLPTPSDIFVSYSTFPGFVSWRDPKSGSWYVETLDDIFEQWAHSEDLQSLLLRVANAVSVKGIYKQMPGCFQFLRKKLFFKTS
# B2: N405Q-S144D (protein)
# chain: GFGDVGALEDLRGNADLAYILSMEPCGHCLIINNVNFCRESGLRTRTGSNIDCEKLRRRFSSLHFMVEVKGDLTAKKMVLALLELAQQDHGALDCCVVVILSHGCQASHLQFPGAVYGTDGCPVSVEKIVNIFNGTSCPSLGGKPKLFFIQACGGEQKDHGFEVASTSPEDESPGSNPEPDATPFQEGLRTFDQLDAISSLPTPSDIFVSYSTFPGFVSWRDPKSGSWYVETLDDIFEQWAHSEDLQSLLLRVANAVSVKGIYKQMPGCFQFLRKKLFFKTS
# B3: N405Q-S196D (protein)
# chain: GFGDVGALESLRGNADLAYILSMEPCGHCLIINNVNFCRESGLRTRTGSNIDCEKLRRRFSDLHFMVEVKGDLTAKKMVLALLELAQQDHGALDCCVVVILSHGCQASHLQFPGAVYGTDGCPVSVEKIVNIFNGTSCPSLGGKPKLFFIQACGGEQKDHGFEVASTSPEDESPGSNPEPDATPFQEGLRTFDQLDAISSLPTPSDIFVSYSTFPGFVSWRDPKSGSWYVETLDDIFEQWAHSEDLQSLLLRVANAVSVKGIYKQMPGCFQFLRKKLFFKTS
# B4: N405Q-T3175 (protein, UniProt P55211 1-416, looked up, variant N405Q T317S)
# chain: MDEADRRLLRRCRLRLVEELQVDQLWDALLSRELFRPHMIEDIQRAGSGSRRDQARQLIIDLETRGSQALPLFISCLEDTGQDMLASFLRTNRQAAKLSKPTLENLTPVVLRPEIRKPEVLRPETPRPVDIGSGGFGDVGALESLRGNADLAYILSMEPCGHCLIINNVNFCRESGLRTRTGSNIDCEKLRRRFSSLHFMVEVKGDLTAKKMVLALLELAQQDHGALDCCVVVILSHGCQASHLQFPGAVYGTDGCPVSVEKIVNIFNGTSCPSLGGKPKLFFIQACGGEQKDHGFEVASTSPEDESPGSNPEPDASPFQEGLRTFDQLDAISSLPTPSDIFVSYSTFPGFVSWRDPKSGSWYVETLDDIFEQWAHSEDLQSLLLRVANAVSVKGIYKQMPGCFQFLRKKLFFKTS
# B5: N405Q-S144Aco (protein, UniProt P55211 1-416, looked up, variant N405Q S144A)
# chain: MDEADRRLLRRCRLRLVEELQVDQLWDALLSRELFRPHMIEDIQRAGSGSRRDQARQLIIDLETRGSQALPLFISCLEDTGQDMLASFLRTNRQAAKLSKPTLENLTPVVLRPEIRKPEVLRPETPRPVDIGSGGFGDVGALEALRGNADLAYILSMEPCGHCLIINNVNFCRESGLRTRTGSNIDCEKLRRRFSSLHFMVEVKGDLTAKKMVLALLELAQQDHGALDCCVVVILSHGCQASHLQFPGAVYGTDGCPVSVEKIVNIFNGTSCPSLGGKPKLFFIQACGGEQKDHGFEVASTSPEDESPGSNPEPDATPFQEGLRTFDQLDAISSLPTPSDIFVSYSTFPGFVSWRDPKSGSWYVETLDDIFEQWAHSEDLQSLLLRVANAVSVKGIYKQMPGCFQFLRKKLFFKTS
# modifications: codon optimized
# System: chimeric Caspase-9 polypeptide
# Test: Caspase mutant classes and basal activity (Table 3)
# Type: cell-based, human
# Conditions: class heading of Table 3; for IC50: ligand IC50
# Chain of chimeric Caspase-9 polypeptide (as listed by the source, change not shown): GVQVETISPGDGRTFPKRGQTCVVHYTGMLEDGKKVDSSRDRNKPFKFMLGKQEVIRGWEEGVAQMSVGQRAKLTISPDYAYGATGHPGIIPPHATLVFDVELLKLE
Molecule,Basal Activity,IC50,"Basal Activity (marked *, predicted)"
B1,Decreased,higher IC50,
B2,Decreased,higher IC50,
B3,Decreased,higher IC50,
B4,Decreased,higher IC50,
B5,,,Decreased
